Results on seven molecules are retold here after US20200109169A1 (BGI SHENZHEN, published 2020).

To fix the notation:
B1: mutant polypeptide TLAFLIFNI (SEQ ID NO: 1) (peptide)
peptide: TLAFLIFNI
notes: Made by solid phase synthesis, purity >90% by HPLC

The target in this assay is T1, HLA-A0201 on the surface of T2 cells (human).
T1 construct: MHC class I molecule on T2 cells; surface HLA-A*02:01 was read with an anti-HLA-A*02:01 FITC monoclonal antibody after overnight loading with peptide
Description: T2 cell peptide loading, flow cytometry with anti-HLA-A*02:01 FITC antibody, peptide 100 uM. For orientation: A flow cytometer gives signals particle by particle.
Description: After centrifugation at 200 g for 5 minutes for cell collection, the collected cells were washed with phosphate buffer saline (PBS) buffer twice, before incubated with anti-HLA-A*02:01 FITC monoclonal antibody at 4° C. for 30 minutes. The mean fluorescence intensity of cells was then detected and analyzed by the flow cytometry (BD FACSJazz™)) and its software.
As for PLAFLIFNI (Made by solid phase synthesis) [wild-type polypeptide PLAFLIFNI (SEQ ID NO: 7)], the “FI (fluorescence index)” value was determined as 1.63 and the Mean fluorescence intensity was 650.

On to TLAFLIFNV (Made by solid phase synthesis) [mutant polypeptide's variant TLAFLIFNV (SEQ ID NO: 3)], for which the “FI (fluorescence index)” value worked out at 1.51 and the Mean fluorescence intensity was determined as 620.

Take TLAFLIFNL (Made by solid phase synthesis) [mutant polypeptide's variant TLAFLIFNL (SEQ ID NO: 4)]: the “FI (fluorescence index)” value worked out at 1.49 and the Mean fluorescence intensity was found to be 615.

For the molecule B1, the “FI (fluorescence index)” value is 1.6 and the Mean fluorescence intensity worked out at 643.

Consider TMAFLIFNL (Made by solid phase synthesis) [mutant polypeptide's variant TMAFLIFNL (SEQ ID NO: 5)], for which the “FI (fluorescence index)” value came to 1.79 and the Mean fluorescence intensity was determined as 690.

Turning to TMAFLIFNV (Made by solid phase synthesis) [mutant polypeptide's variant TMAFLIFNV (SEQ ID NO: 6)], the “FI (fluorescence index)” value is 1.74 and the Mean fluorescence intensity worked out at 677.

Turning to TMAFLIFNI (Made by solid phase synthesis) [mutant polypeptide's variant TMAFLIFNI (SEQ ID NO: 2)], the “FI (fluorescence index)” value is 1.67 and the Mean fluorescence intensity was 660.
